B1: Cell division protein FtsL (Escherichia coli (strain K12)), P0AEN4 (parent)
chain: MISRVTEALSKVKGSMGSHERHALPGVIGDDLLRFGKLPLCLFICIILTAVTVVTTAHHTRLLTAQREQLVLERDALDIEWRNLILEENALGDHSRVERIATEKLQMQHVDPSQENIVVQK
partner: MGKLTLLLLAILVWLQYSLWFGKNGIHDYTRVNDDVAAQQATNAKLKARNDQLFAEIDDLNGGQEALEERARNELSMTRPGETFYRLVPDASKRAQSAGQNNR
B2: Cell division protein FtsB (Escherichia coli (strain K12)), P0A6S5 (parent)
chain: B1 partner
partner: B1 chain

In one assay the parent is B1. The settings on record: with ftsb_ecoli ftsB, P0A6S5.
For the variant MISRVTEALSKVKGSMGSHERHALPGVIGDDLLRFGKLPLCLFICIILTAVTVVTTAHHTRLATAQREQAVLERDAADIEWRNAILEENALGDHSRVERIATEKLQMQHVDPSQENIVVQK [L63A;L70A;L77A;L84A], the “effect of a mutation on the interaction” value was “decreasing interaction strength”.

The next assay covers variants of B2. The settings on record: with ftsl_ecoli ftsL, P0AEN4.
In the case of MGKLTLLLLAILVWLQYSLWFGKNGIHDYTRVNDDVAAQQATNAKAKARNDQAFAEIDDANGGQEAAEERARNELSMTRPGETFYRLVPDASKRAQSAGQNNR [L46A;L53A;L60A;L67A], the “effect of a mutation on the interaction” value is listed as “decreasing interaction”.

Variants of B2 are the subject of a further assay. The settings on record: with ftsl_ecoli ftsL.
On to MGKLTLLLLAILVWLQYSLWFGKNGIHDYTRVNDDVAAQQATNAKAKARNDQAFAEIDDANGGQEAAEERARNELSMTRPGETFYRLVPDASKRAQSAGQNNR [L46A;L53A;L60A;L67A], for which the “effect of a mutation on the interaction” value is reported as “decreasing interaction”.

These data come from IntAct's records for PubMed 21784946.
